Results reported in publication doi:10.1101/2021.01.26.428356, “Sequence signatures of two IGHV3-53/3-66 public clonotypes to SARS-CoV-2 receptor binding domain” (bioRxiv, 2021).

Target: T1, Fc-tagged receptor-binding domain (RBD) of the SARS-CoV-2 spike (S) protein (SARS-CoV-2, Wuhan-Hu-1 (GenBank …, UniProt P0DTC2))
T1 construct: also called SARS-CoV-2 RBD; SARS-CoV-2 S RBD-Fc; not shown: Fc, C-terminal, kept
Experiment: BLI; Octet Red96e; Fc-tagged RBD loaded onto the biosensor (streptavidin biosensors as printed), Fab in solution; 1x PBS pH 7.4, 0.01% w/v BSA, 0.002% v/v Tween 20; 60 s association, 60 s dissociation; 1:1 binding model
Settings: both partners purified

B1: CC12.3 Fab, Y58 variant (heavy chain F58Y) (Fab, V domains shown)
VH: QVQLVESGGGLIQPGGSLRLSCAASGFTVSSNYMSWVRQAPGKGLEWVSVIYSGGSTYYADSVKGRFTISRDNSKSTLYLQMNSLRVEDTAVYYCARDFGDFYFDYWGQGTLVTVSS
VL: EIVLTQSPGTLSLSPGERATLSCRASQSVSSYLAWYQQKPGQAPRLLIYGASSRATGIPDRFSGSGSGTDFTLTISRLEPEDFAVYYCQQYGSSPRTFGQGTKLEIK
notes: also called CC12.3 Y58
- binding result: binds

B2: COVA2-20 Fab, F58 variant (heavy chain Y58F) (Fab, V domains shown)
VH: EVQLVESGGGLIQPGGSLRLSCAASGFTVSSNYMSWVRQAPGKGLEWVSVIYSGGSTFYADSVKGRFTISRDNSKNTLYLQMNSLRAEDTAVYYCASPLLLTPPDYYYYMDVWGKGTMVTVSS
VL: DVVMTQSPSSLSVSVGDRVTITCRASQGIRNDLGWYQQKPGKAPKRLIYAASSLQSGVPSRFSGSGSGTEFTLTISSLQPEDFATYYCLQHNSYLWTFGQGTKLEIK
notes: also called COVA2-20 F58
- binding result: binds
